Assay results published in paper PMC9411592, “Specificity of TGF-β1 signal designated by LRRC33 and integrin αVβ8” (Nature Communications, 2022).
Substitutions are numbered along the chain they refer to. One block for each binder: values may come before it.

Experiments:
[1] = target: L-TGF-β1/LRRC33 complex (L-TGF-β1 dimer disulfide-linked to one LRRC33 ectodomain) (human, N-linked glycosylation | N-linked glycosylation); assay: cryo-EM structure; purified αVβ8 headpiece and purified L-TGF-β1/LRRC33 mixed on ice at a molar ratio of 2.2:1 with 1 mM MnCl2 and 0.2 mM CaCl2, then SEC; 2:2:1 map at 5.19 Å, masked 1:2 αVβ8/L-TGF-β1 at 3.24 Å; conditions: both partners purified
Chain of L-TGF-β1/LRRC33 complex (L-TGF-β1 dimer disulfide-linked to one LRRC33 ectodomain) (human, N-linked glycosylation | N-linked glycosylation) (chain, as listed by the source, chain 1 of 2): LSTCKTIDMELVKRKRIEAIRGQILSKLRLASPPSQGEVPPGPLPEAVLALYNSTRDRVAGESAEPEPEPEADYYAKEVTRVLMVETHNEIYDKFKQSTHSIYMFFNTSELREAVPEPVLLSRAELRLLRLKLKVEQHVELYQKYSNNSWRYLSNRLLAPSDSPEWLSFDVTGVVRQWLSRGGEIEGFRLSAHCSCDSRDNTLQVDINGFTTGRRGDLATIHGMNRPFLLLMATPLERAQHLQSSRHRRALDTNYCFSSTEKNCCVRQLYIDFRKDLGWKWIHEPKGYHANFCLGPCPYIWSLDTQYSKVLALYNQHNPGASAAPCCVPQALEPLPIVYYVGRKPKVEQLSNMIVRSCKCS
Chain of L-TGF-β1/LRRC33 complex (L-TGF-β1 dimer disulfide-linked to one LRRC33 ectodomain) (human, N-linked glycosylation | N-linked glycosylation) (chain, as listed by the source, chain 2 of 2): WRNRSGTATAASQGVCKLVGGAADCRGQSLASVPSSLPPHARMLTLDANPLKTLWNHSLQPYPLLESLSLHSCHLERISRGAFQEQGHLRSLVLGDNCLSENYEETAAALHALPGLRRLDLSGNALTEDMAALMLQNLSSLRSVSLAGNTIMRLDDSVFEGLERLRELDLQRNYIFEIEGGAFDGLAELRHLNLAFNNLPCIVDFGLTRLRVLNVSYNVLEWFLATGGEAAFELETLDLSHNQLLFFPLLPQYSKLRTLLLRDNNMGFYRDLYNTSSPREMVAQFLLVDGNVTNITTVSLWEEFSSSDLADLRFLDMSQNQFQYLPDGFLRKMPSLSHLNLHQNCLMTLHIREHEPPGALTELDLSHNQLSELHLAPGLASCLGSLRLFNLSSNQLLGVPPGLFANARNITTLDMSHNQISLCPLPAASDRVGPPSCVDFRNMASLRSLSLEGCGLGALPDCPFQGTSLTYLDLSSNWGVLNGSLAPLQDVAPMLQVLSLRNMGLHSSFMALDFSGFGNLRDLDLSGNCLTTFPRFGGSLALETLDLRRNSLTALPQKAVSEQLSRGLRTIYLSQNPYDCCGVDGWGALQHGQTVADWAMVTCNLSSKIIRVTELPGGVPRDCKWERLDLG

[2] = target: T1, L-TGF-β1 C4S/R249A (the 'WT' of the SPR assay) (human); assay: SPR; Biacore T200, 25 °C; L-TGF-β1 (C4S/R249A, or + RGEGATG) immobilised on a CM5 chip by amine coupling; integrin headpieces injected at 20 μl/min in 20 mM HEPES pH 7.5, 150 mM NaCl, 1 mM MgCl2, 1 mM CaCl2; 1:1 Langmuir model; conditions: both partners purified
T1 construct: latent TGF-β1, human, with C4S and R249A; numbers count on: the protein without its signal peptide; The methods describe L-TGF-β1 alone as N-terminally His6-tagged, made in HEK293S GnTI- cells, tag cleaved with PreScission; also called WT (C4S/R249A) L-TGF-β1; mutant L-TGF-β1 (C4S/R249A); source: purified
T1 sequence (P01137 other isoform, or with tags, fused parts or gaps R249A R249A): as the sequence (chain, as listed by the source, chain 1 of 2) above, with C4S, R249A counted along it

stoichiometry N [1]: 2 αVβ8 per L-TGF-β1 dimer/LRRC33 complex
Kd [2]: 111 nM
B1: integrin αVβ8 headpiece (αV residues 1-594, β8 residues 1-456) (complex)
chain 1: FNLDVDSPAEYSGPEGSYFGFAVDFFVPSASSRMFLLVGAPKANTTQPGIVEGGQVLKCDWSSTRRCQPIEFDATGNRDYAKDDPLEFKSHQWFGASVRSKQDKILACAPLYHWRTEMKQEREPVGTCFLQDGTKTVEYAPCRSQDIDADGQGFCQGGFSIDFTKADRVLLGGPGSFYWQGQLISDQVAEIVSKYDPNVYSIKYNNQLATRTAQAIFDDSYLGYSVAVGDFNGDGIDDFVSGVPRAARTLGMVYIYDGKNMSSLYNFTGEQMAAYFGFSVAATDINGDDYADVFIGAPLFMDRGSDGKLQEVGQVSVSLQRASGDFQTTKLNGFEVFARFGSAIAPLGDLDQDGFNDIAIAAPYGGEDKKGIVYIFNGRSTGLNAVPSQILEGQWAARSGCPPSFGYSMKGATDIDKNGYPDLIVGAFGVDRAILYRARPVITVNAGLEVYPSILNQDNKTCSLPGTALKVSCFNVRFCLKADGKGVLPRKLNFQVELLLDKLKQKGAIRRALFLYSRSPSHSKNMTISRGGLMQCEELIAYLRDESEFRDKLTPITIFMEYRLDYRTAADTTGLQPILNQFTPANISRQAHILLD
chain 2: EDNRCASSNAASCARCLALGPECGWCVQEDFISGGSRSERCDIVSNLISKGCSVDSIEYPSVHVIIPTENEINTQVTPGEVSIQLRPGAEANFMLKVHPLKKYPVDLYYLVDVSASMHNNIEKLNSVGNDLSRKMAFFSRDFRLGFGSYVDKTVSPYISIHPERIHNQCSDYNLDCMPPHGYIHVLSLTENITEFEKAVHRQKISGNIDTPEGGFDAMLQAAVCESHIGWRKEAKRLLLVMTDQTSHLALDSKLAGIVCPNDGNCHLKNNVYVKSTTMEHPSLGQLSEKLIDNNINVIFAVQGKQFHWYKDLLPLLPGTIAGEIESKAANLNNLVVEAYQKLISEVKVQVENQVQGIYFNITAICPDGSRKPGMEGCRNVTSNDEVLFNVTVTMKKCDVTGGKNYAIIKPIGFNETAKIHIHRNCSCQCEDNRGPKGKCVDETFLDSKCFQCDENK

Kd [2]: 2.18 nM
B2: integrin αVβ6 headpiece (αV residues 1-594, β6 residues 1-474) (complex)
chain 1: B1 chain 1
chain 2: HVQGGCALGGAETCEDCLLIGPQCAWCAQENFTHPSGVGERCDTPANLLAKGCQLNFIENPVSQVEILKNKPLSVGRQKNSSDIVQIAPQSLILKLRPGGAQTLQVHVRQTEDYPVDLYYLMDLSASMDDDLNTIKELGSRLSKEMSKLTSNFRLGFGSFVEKPVSPFVKTTPEEIANPCSSIPYFCLPTFGFKHILPLTNDAERFNEIVKNQKISANIDTPEGGFDAIMQAAVCKEKIGWRNDSLHLLVFVSDADSHFGMDSKLAGIVCPNDGLCHLDSKNEYSMSTVLEYPTIGQLIDKLVQNNVLLIFAVTQEQVHLYENYAKLIPGATVGLLQKDSGNILQLIISAYEELRSEVELEVLGDTEGLNLSFTAICNNGTLFQHQKKCSHMKVGDTASFSVTVNIPHCERRSRHIIIKPVGLGDALELLVSPECNCDCQKEVEVNSSKCHHGNGSFQCGVCACHPGHMGPRCE

Kd [2]: 46.9 nM
B3: integrin αVβ6-8DLL headpiece (the disulfide-linked loop of β6 substituted by that of β8) (complex)
chain 1: B1 chain 1
chain 2: B2 chain 2 with S182D, I183Y, P184N, Y185L, F186D
